From US20220204643A1 (published 2022) come the findings set out here.

Experiment [1] has as its target T1, nudix hydrolase 22, transcript variant 2 (human, UniProt Q9BRQ3 1-303).
T1 construct: also called NUDT22
T1 chain: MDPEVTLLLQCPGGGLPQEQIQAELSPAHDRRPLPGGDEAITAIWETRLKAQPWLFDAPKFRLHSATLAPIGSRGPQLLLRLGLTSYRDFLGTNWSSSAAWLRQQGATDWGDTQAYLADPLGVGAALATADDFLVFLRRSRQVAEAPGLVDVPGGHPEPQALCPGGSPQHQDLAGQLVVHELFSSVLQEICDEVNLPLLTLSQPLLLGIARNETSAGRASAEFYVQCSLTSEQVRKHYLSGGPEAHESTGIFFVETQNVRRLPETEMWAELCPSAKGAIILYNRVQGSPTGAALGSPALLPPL

Experiment [2] deals with T2, DEAD-box helicase 53 (human, UniProt Q86TM3 1-631).
T2 construct: also called DDX53

Experiment [3] addresses T3, Vezatin, adherens junctions transmembrane protein (human, UniProt Q9HBM0 56-779 at identity 0.99), limits assumed).
T3 construct: also called VEZT
T3 chain: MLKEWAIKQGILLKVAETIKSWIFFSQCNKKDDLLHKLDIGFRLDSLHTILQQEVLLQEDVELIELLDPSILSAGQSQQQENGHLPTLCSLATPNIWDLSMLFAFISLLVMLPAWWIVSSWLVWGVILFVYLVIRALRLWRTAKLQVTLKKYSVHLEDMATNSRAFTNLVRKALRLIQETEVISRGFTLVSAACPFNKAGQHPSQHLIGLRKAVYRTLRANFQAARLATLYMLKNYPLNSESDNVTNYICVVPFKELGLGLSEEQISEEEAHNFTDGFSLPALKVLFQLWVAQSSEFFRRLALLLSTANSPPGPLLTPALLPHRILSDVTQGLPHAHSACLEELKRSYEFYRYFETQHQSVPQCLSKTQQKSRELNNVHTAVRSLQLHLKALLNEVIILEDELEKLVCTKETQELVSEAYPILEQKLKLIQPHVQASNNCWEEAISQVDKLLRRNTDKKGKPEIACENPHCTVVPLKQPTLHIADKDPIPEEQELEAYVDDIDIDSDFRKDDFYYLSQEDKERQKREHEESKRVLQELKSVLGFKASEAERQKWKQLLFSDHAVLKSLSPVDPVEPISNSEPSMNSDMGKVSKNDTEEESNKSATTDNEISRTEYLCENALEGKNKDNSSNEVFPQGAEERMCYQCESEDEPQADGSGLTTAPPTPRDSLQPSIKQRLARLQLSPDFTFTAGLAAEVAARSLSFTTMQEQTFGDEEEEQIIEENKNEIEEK

In experiment [4] the target is T4, interleukin 27 receptor subunit alpha (human, UniProt Q6UWB1 33-636, limits assumed).
T4 construct: also called IL27RA
T4 sequence: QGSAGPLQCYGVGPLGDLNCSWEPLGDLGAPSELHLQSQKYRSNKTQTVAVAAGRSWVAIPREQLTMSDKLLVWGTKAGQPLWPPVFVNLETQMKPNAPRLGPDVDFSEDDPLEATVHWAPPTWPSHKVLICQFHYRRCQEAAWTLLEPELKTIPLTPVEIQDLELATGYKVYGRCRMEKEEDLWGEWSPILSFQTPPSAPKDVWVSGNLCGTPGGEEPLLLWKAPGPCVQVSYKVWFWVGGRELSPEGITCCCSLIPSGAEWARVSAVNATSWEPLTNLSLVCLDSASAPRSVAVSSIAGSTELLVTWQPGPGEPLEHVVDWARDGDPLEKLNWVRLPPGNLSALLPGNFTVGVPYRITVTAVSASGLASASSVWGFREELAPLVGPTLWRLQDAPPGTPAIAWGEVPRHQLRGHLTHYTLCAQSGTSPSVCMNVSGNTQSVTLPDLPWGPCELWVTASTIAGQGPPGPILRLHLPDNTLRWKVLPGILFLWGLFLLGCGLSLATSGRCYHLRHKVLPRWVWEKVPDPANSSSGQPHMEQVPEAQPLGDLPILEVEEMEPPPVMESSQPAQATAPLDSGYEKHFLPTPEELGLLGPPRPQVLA

Experiment [5] concerns the target T5, microtubule associated protein RP/EB family member 2, transcript variant 1 (human, UniProt Q15555 1-327).
T5 construct: also called MAPRE2

In experiment [6] the target is T6, Jupiter microtubule associated homolog 2 (human, UniProt Q9H910 1-190).
T6 construct: HuProt array protein, full-length recombinant from yeast; also called HN1L
T6 sequence: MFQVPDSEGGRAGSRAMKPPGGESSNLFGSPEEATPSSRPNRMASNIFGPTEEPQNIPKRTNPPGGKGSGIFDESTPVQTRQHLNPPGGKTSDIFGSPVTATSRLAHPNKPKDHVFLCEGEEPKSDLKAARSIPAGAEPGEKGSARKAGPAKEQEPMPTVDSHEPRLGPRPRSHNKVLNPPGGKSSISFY

Experiment [7] deals with T7, BTB domain containing 8 (human, UniProt Q5XKL5 1-374, limits assumed).
T7 construct: HuProt array protein, full-length recombinant from yeast; also called BTBD8

The target in experiment [8] is T8, HEAT repeat containing 3, transcript variant 1 (human, UniProt Q7Z4Q2 1-680).
T8 construct: also called HEATR3
T8 sequence: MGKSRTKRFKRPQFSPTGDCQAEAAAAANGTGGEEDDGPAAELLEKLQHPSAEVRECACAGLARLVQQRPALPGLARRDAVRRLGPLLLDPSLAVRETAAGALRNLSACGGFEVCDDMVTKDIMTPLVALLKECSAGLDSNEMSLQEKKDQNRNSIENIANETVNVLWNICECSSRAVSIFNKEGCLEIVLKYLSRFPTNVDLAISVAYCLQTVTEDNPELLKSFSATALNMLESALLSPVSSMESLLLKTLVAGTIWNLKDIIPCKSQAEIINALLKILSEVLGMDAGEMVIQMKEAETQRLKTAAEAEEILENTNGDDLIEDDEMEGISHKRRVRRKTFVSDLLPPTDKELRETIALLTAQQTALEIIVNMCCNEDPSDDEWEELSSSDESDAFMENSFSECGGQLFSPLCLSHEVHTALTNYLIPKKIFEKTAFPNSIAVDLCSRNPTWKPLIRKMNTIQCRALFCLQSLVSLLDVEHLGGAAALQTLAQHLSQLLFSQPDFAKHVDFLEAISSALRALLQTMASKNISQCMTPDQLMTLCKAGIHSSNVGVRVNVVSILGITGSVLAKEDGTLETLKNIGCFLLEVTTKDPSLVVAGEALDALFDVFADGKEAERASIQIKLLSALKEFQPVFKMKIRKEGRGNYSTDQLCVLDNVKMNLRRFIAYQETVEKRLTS

Experiment [9] concerns the target T9, Deoxyhypusine synthase (human, UniProt P49366 1-369).
T9 construct: also called DHPS
T9 sequence: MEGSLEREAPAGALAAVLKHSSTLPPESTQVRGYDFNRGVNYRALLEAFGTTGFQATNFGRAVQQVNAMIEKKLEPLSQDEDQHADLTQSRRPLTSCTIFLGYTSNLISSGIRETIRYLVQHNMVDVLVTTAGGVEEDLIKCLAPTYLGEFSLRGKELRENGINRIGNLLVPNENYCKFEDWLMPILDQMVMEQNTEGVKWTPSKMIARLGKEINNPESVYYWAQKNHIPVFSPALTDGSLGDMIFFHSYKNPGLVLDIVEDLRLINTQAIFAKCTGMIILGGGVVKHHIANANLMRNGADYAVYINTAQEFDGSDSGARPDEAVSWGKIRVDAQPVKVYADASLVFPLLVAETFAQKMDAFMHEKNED

T2 sequence (Q86TM3 other isoform, or with tags, fused parts or gaps limits assumed): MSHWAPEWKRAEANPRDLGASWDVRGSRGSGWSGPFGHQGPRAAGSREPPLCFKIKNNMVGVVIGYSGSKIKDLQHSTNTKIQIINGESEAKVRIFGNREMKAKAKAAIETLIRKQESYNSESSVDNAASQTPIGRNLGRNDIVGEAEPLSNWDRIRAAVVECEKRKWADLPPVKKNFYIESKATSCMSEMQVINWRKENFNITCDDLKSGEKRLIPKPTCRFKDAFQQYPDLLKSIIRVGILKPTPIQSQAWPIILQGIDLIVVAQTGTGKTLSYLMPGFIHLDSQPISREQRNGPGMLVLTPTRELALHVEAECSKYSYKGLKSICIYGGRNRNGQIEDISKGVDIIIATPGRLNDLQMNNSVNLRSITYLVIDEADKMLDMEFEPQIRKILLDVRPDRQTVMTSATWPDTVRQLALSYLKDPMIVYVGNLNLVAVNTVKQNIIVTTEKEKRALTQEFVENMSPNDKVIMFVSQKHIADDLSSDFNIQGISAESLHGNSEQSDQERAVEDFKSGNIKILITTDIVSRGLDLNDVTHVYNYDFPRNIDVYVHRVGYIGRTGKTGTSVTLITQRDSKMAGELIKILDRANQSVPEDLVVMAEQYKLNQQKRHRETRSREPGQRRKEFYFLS
T7 sequence (Q5XKL5 other isoform, or with tags, fused parts or gaps limits assumed): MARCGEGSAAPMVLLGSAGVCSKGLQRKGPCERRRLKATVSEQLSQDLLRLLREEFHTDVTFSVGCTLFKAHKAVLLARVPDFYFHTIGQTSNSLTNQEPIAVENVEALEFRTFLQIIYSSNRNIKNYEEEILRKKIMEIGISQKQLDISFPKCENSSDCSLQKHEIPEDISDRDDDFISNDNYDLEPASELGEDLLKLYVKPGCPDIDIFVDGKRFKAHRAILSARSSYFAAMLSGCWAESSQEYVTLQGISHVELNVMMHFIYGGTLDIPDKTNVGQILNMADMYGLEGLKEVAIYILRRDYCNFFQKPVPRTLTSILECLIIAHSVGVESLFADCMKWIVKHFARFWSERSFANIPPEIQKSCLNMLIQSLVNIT
T5 sequence (Q15555 whole entry, change not shown): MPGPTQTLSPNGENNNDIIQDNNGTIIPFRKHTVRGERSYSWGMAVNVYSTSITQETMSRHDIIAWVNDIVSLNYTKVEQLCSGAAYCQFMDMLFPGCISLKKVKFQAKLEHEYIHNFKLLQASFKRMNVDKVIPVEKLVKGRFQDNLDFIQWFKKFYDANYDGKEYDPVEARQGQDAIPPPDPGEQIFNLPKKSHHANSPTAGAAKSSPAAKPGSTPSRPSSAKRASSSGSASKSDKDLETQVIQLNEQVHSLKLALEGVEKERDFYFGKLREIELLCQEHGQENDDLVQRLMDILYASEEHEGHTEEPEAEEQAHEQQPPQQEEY

B1: TOVA1007 (antibody, V domains shown)
VH: PVQLQESGPGLVNPSQTLSLTCTVSGGSISSGGYCWSWVRQHPGKGLEWIGCIYYIGTTYYMRSLKSRLIISIDTSKNQFSLKLTSVTAADSAVYYCARGGELLGGFGYSGMDVWGQGTTVTVSS
VL: not shown
Regarding B1, in experiment [1], the binding result is reported as “binds”.

B2: TOVA1005 (antibody, V domains shown)
VH: QITLKESGPTLVKPTQTLTLTCTFSGFSLSTNGVGVGWIRQPPGKALEWLALINWDDDKRYSPSLKSRLTITKDTSKNQVVLTMTNLDPVDTATYYCVHARDDYGDSAWSTGPVWGQGTLVTVSS
VL: DFLLTQPHSVSESPGKTVTISCTRSSGSIASNYVQWYQQRPGSSPSTVIYEDHQRPSGVPGRFSGSIDSSSNSASLTISGLKTEDEADYFCQSSDSNNHVVFGGGTKLTVLG
Turning to B2, the binding result in experiment [2] and in experiment [3] was “binds” each time.

B3: TOVA1002 (antibody, V domains shown)
VH: QVQLVESGGGVVQPGRSLRLSCAASGFTFSNFAMHWVRQAPGKGLEWVVVISSDGSNKNYADSVKGRFTISRDNSKNTLYLQMNSLRAEDTAVYYCARDLGVGSTTYWGQGTLVTVSS
VL: SYVLTQPPSVSVAPGQTARITCGGNNIGSKSVHWYQQKPGQAPVLVVYDDSDRPSGIPERFSGSNSGNTATLTISRVEAGDEADYYCQVWDGYSDPLVFGGGTKLTVLG
For the molecule B3, in experiment [4], the binding result was “binds”.

B4: TMES1004 (antibody, V domains shown)
VH: QVQLVQSGAEVKKPGASVKISCKASGYTFTSHAIHWVRQAPGQTFEWLGWINPVNGVTKYSQTFQDRVTIVRDKSATTTYMDLSGLTFEDTAMYYCARVLDFYGSSVLDYWGQGTLVTVSS
VL: QSALTQPASVSGSPGQSITISCTGTSSDIGTYNLVSWYQQRPGKAPKLIIYDVIKRPSGISDRFSGSKSDNMASLTISGLQAEDEAHYYCCSYRSSTAPVVFGGGTKVTVL
B4: the binding result in [5] was “binds”.

B5: TMES1002 (antibody, V domains shown)
VH: QVQVVESGGGLVKPGGSLRLSCAVSGLDFRDYYVNWIRQAPGKGLEWLSYITSPGGHTSYSDSVKGRFTISRDNAKNSVYLQMDSLTVEDTAVYFCAIKEGYGLSDWGQGTLVTVSS
VL: EIVLTQSPVTLSLSPGERATLSCRASQSVSSSYIAWYQQKPGQAPRLLIYGASTRATGIPDRFSGSGSGTDFTLTISRLEPEDCAVFYCQQYGSSHYTFGQGTKLEIKR
notes: detected with anti-human IgG Fc
As to B5, the binding result in experiment [6] and in experiment [7] was “binds” in each case.

B6: TOVA1004 (antibody, V domains shown)
VH: EVQLVESGGGLVKPGGSLRLSCAASGFTFSSYSMNWVRQAPGKGLEWVSSISSSSSYIYYADSVKGRFTISRDNAKNSLYLQMNSLRAEDTAVYYCARDRGVVVVAATPYYYGMDVWGQGTTVTVSS
VL: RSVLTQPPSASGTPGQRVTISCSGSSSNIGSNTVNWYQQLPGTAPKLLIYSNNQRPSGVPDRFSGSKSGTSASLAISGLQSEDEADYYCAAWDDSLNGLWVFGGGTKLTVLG
B6: the binding result in experiment [8] was “binds”.

B7: TOVA1003 (antibody)
VH: GEQLLESGGGLVQPGGSLRLSCAASGFTFSHYAMTWVRQAPGKGLEWVSGVSGSGFTTYYADSVKGRFTISRDNAQNTLYLHMNSLRAEDTAIYYCVKDLEVSIGHNFDFWGQGTLVTVSSASTKGPSVFPLAPSSKSTSGGTAALGCLVKDYFPEPVTVSWNSGALTSGVHTFPAVLQSSGLYSLSSVVTVPSSSLGTQTYICNVNHKPSNTKVDKRV
VL: EVQMTQSPSSLSASVGDRVTITCRASQHIAGRLNWYQQKPGKAPKLLIHSASSVQREVPSRFGGSGFGTDFTLTIYSLQAEDFATYFCQQSYYTPPTFAGGTRVDLKRTVAAPSVFIFPPSDEQLKSGTASVVCLLNNFYPREAKVQWKVDNALQSGNSQESVTEQDSKDSTYSLSSTLTLSKADYEKHKVYACEVTHQGLSSPVTKSFNRGEC
Take B7: in [9], the binding result is “binds”.
